Measured values reported in article PMC11169542, “A probe for NIR-II imaging and multimodal analysis of early Alzheimer’s disease by targeting CTGF” (Nature Communications, 2024).
Entries after “also recorded” stand apart in the source; their conditions may differ. Ends that are not written are not given here.

Experiments:
[1] = In vitro stability of DGC fluorescence on storage in PBS; type: physicochemical; conditions: two weeks storage in PBS
Excerpt: In this manuscript, Lu et al. reported a novel gold cluster-based probe modified with peptides that specifically bind to connective tissue growth factor (CTGF). Owing to the elevated expression of CTGF is an upstream regulator of amyloid-beta (Aβ) plaque, the probe holds a promise for potential application in the early diagnosis of Alzheimer's disease (AD). The unique feature of this probe is their capacity to emit near-infrared (NIR) light, rendering them suitable for in vivo imaging. Moreover, their ability to […]
The article is well-crafted, and the experiments convincingly highlight the distinctive properties of the newly developed probe. […]
following concerns are addressed.
Reviewer 1: How long can the fluorescence last in the cells and AD brain, or how stable is the fluorescence of the probe?
Response: We monitored the fluorescence changes of DGC probes in vitro, in U87MG cells and in brain of APP/PS1 mice, respectively. […]
cultured U87MG cells, DGC probe could be well internalized, and obvious […]
medium for 72 h (Fig R5). In APP/PS1 mice, we detected temporal changes of luminescence from DGC in the brain by in vivo NIR-II imaging. […]
Figure R6. […] Monitoring fluorescence intensity of DGC in brain of WT mice and 3-month-old APP/PS1 mice for 24 h (left). […]

CTX TNA2 cells = assay: Cytotoxicity of DGC (CCK-8); type: cell-based; parameters: key: viability relative to control cells (control = 1); conditions: 200 μM (Au content), 24 h, CCK-8, normalized to control
CTGF = target: T1, CTGF (Homo sapiens, UniProt P29279); assay: DAB chromogenic imaging of DGC-labelled human brain sections; parameters: The brain tissue samples of autopsy-confirmed AD patients were obtained from the Chinese Brain Bank Center; from tissue; host or cells: postmortem human brain sections (hippocampus, cortex) of AD patients and healthy controls; conditions: 200 μM DGC 4 °C overnight + DAB
T1 sequence (P29279 27-349): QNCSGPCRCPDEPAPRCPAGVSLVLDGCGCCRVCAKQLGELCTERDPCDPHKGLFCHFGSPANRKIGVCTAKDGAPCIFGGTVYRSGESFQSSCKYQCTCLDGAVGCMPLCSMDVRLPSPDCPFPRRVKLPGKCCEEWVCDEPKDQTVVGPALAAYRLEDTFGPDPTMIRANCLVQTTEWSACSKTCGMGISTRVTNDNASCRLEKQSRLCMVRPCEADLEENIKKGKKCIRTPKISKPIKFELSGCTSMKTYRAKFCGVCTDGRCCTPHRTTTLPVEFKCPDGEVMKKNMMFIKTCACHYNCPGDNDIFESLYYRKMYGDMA
Experimental: The brain tissue samples of autopsy-confirmed AD patients were obtained from the Chinese Brain Bank Center (CBBC) and Human Brain Bank, Central South University Xiangya School of Medicine. First, the brain sections were air-dried for 15 min at room temperature, followed by immersion in water. 5% H2O2 was applied for 15 min at room temperature. The sections were washed three times with PBS for 5 min each time. Then, tissue repair was performed using trypsin at a temperature of 37 °C for 5 min and washed three times with PBS. We chose 10% sheep serum to block for a duration of 20 min at 37°. Primary antibodies (CTGF antibody and Aβ antibody) were added to the sections overnight at 4 °C. FITC-labeled Goat Anti-Rabbit IgG (H + L) (1: dilution 1:200, Bioss, Cat#bs-0370R-FITC) was applied and incubated at 37 °C for 20 min in darkness. Subsequent washing steps involved rinsing the sections three times with PBS, each time lasting for 5 min while avoiding exposure to light. DAPI staining was performed, taking care to store the samples away from light during the 5-min procedure. Then observed by the CLSM system. Then, we chose the optimal incubation concentration of DGC (200 μM) was used to determine the conditions using DAB Horseradish Peroxidase Color Development Kit. After the brain sections were co-stained by DGC (200 μM) at 4 °C overnight, a DAB chromogenic agent was added to the brain tissue sections to explore whether DGC can catalyze DAB solutions to produce insoluble brown precipitate to attach the brain tissue sections with an optical microscope. Finally, the brain tissue sections were digested with aqua regia to measure the Au content by the ICP-MS system.

DAB chromogenic intensity (CTGF; AD 1, Cortex section): 0.04756 | DAB chromogenic intensity (CTGF; AD 1, Hippocampus section): 0.01899 | DAB chromogenic intensity (CTGF; AD 2, Cortex section): 0.04585 | DAB chromogenic intensity (CTGF; AD 2, Hippocampus section): 0.0257 | DAB chromogenic intensity (CTGF; HC 1, Cortex section): 0.0065 | DAB chromogenic intensity (CTGF; HC 1, Hippocampus section): 0.00154 | DAB chromogenic intensity (CTGF; HC 2, Cortex section): 0.008159 | DAB chromogenic intensity (CTGF; HC 2, Hippocampus section): 0.005
Substance: DGC: CTGF-targeting peptide-coated gold nanocluster: one Au26 gold nanocluster coated by eight DAG cyclic peptides, NIR-II and red fluorescence (CDAGRKQKC; also: cyclic peptide, ring not given here, eight peptides on one Au26 nanocluster via Cys Au-S bonds)
fluorescence intensity change on storage [1]: decreased only slightly; also recorded: decreased only | Cell viability (CTX TNA2 cells; replicate 1): 1.4709 | Cell viability (CTX TNA2 cells; replicate 2): 1.567 | Cell viability (CTX TNA2 cells; replicate 3): 1.589
